Reference: patent EP2009022A1
pKd: −log10 of the molar value.

Columns and labels:
[1] = molecular target: human CD95 (human) (UniProt P25445); experiment: cell-based or functional assay
[2] = molecular target: murine CD95 (murine) (UniProt P25446); experiment: FACS on MBL2-CD95 cells, anti-Flag mAb M2 and PE anti-mouse IgG
[3] = molecular target: Fc-CD95 (human) (UniProt P25445); experiment: SPR (BIAcore 2000), biotinylated Fc-CD95 on streptavidin chip, ligand in solution, 1:1 model
[4] = molecular target: human CD95 (human) (UniProt P25445); experiment: FACS on KB cells, anti-Flag mAb M2 and PE anti-mouse IgG
[5] = molecular target: TRAILR1 (human) (UniProt O00220); experiment: cell-based or functional assay
Sequence of UniProt O00220 (O00220 24-468): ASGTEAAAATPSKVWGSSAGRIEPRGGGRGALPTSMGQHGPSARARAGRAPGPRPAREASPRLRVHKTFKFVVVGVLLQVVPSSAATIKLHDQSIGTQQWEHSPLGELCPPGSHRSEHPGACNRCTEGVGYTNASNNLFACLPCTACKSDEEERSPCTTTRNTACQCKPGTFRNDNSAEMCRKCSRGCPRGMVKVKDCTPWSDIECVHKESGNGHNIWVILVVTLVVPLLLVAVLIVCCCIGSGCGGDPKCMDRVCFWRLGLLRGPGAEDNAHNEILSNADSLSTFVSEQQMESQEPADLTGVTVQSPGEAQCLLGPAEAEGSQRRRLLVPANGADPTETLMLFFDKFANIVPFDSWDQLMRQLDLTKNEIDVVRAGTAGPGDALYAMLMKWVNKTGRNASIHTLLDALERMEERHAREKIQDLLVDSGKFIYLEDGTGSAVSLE

Sequence of UniProt P25446 (P25446 22-327): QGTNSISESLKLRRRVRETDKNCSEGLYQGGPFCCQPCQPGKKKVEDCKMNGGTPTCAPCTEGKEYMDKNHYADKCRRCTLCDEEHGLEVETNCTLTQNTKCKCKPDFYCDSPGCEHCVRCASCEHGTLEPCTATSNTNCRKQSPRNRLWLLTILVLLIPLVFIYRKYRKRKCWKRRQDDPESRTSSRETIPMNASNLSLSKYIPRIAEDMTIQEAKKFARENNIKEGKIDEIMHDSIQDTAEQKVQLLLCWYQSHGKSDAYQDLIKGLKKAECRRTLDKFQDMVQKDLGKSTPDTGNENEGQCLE

lowest concentration with significant binding [2] [µg/mL] | pKd [3] | lowest concentration with significant binding [4] [µg/mL] | Substance | protection of KB cells from Fc-hCD95L-induced cell death (competition assay) [1] [µg/mL] | cell death of CHX-sensitized KB cells, no crosslinking (crystal violet) [5] [ng/mL]
– | – | – | mCD95L(137-279) (ligand) | > 1 | –
0.1 | 7.41 | 0.3 | Flag-hCD95L(137-281) (ligand) | 0.05 | –
– | 7.59 | – | Flag-TNC-mCD95L(137-279) (from UniProt P10039 110-139) (ligand) | – | –
– | – | – | Flag-hTRAIL(95-281) (ligand) | – | 10
